The domain aggregation screens of Martell et al. (2025)

Experiment: soluble fraction after stress (log2 fold change); higher = more stays soluble; pooled small domains, quantitative proteomics
Conditions: stress: 75 degC
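Note: 20 min heating vs room temperature control held 20 min.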

| Sequence | soluble fraction (log2) |
| --- | --- |
| HMVTARMPDLFGLDEATAQRMVSNAGLTLKTEYAYSDQAEGYVFDQTPEANAEVRRGGTVTAMIS | 0.069 |
| HMWQVVEVDYGTFMSMTEDGQVGRVEIQEQENLILFTDQEETTVYKTAMVDDPDLTARLHDAGIPFYGQE | -1.06 |
| HMTENQKNIDLIKIVSLLVHAAKIDENYTNKEKELIINFINNFSKENKQNIKSSEILEEAEKYEK | 0.132 |
| HMIMLDRILKIMDYNKFTPSEFADVLEIDRSRLSHILNGRNKPSLEIVMKILEKFPEISSDWLLFGSGNML | -2.73 |
| HMARPLHVDALIHLGTEIGSRVGGAHAGPHLLVAGHSPMSELVYARLLGIPTLGWMRGQLTFVNLSK | 0.0485 |
| HMKAQLQHIIGSNIKLARNTQGYTQEGLAERAEISVEHLKQVERGKKMLSVESLVNVANALQVSVDSLV | 0.0141 |
| HMLKREDEVIVVAGKDKGKRGTITQLVGDDRVIVAGVNMVKRHTKPNPNLGQPGGIVEREASLHISNV | 0.244 |
| HMHQIFAETVFEDIAFGPRNKGFNEEEVAKQVREAMAFVGLDYDTYAQRSPFQLSGGQMRRVAIAGVVA | 0.0104 |
| HMDTVSYMSDAVKAGAVTPSHDEEARARYLLYAGFGAILLFLRYEASEPGDIESAIREFMERYGPVTAELY | 0.347 |
| HMSTVTGLINYLSSGLIKGVGEATARKLVDHFGLDVLDIIQFNPQRLLEVDGIGEARAEMIASSFSEQK | -1.21 |
| HMNKRYKVQVTTDNLKIRKGAGTSYPVVGHITDKGTYTIVETSGKWGKLLSGAGWIYLSYTKK | -2.13 |
| HMITEDQVIARIGLLSPAEKSLLKDKLERFRRLTLSEQQHLREFHSALDNHDKRTDLLNVLRKYNDWVNQL | -1.99 |
| HMEAADAGTLAQRAAQYFNEKNYAAALDALERRAAMAPETTELRMMRGWSLLHLNRKDEARNAFATLG | -0.101 |
| HMKTELAYDFHSRIRDARIREGLSQVDLAKRMNEKIAVIQKAENGIRPTDSLIAKFSKALSVELYVE | -2.12 |
| HMAAGKGVTTGSVRLRKGSNTDSAIIATLKKDTELILYGKKDGWYSVKTSDGTEGFVSSKYVKVTEAY | 0.61 |
| HMFRSNAERAAHLASALPRAEAELAALQARGAATSENIYLRSSYFDALRYTEELRAAKRAQDALQGA | 0.195 |
| HMKRTFGEISPLPSGRYRARYRGPDGERYPAPVTFLSRMDAETWLSAQARKVSSGDWTPPVGVVA | -0.34 |
| HMGQLIVTIPNFERRPAEQAIQKLEELGLVPEEKQIYHDDIPAGSVIYTDPSKDSQVNAGTKVYVYVSLG | -0.311 |
| HMVSRQINVIPDDLAGLRLDQALAHLFPQHSRSRLKEWLLEDIIIVQGGPKRPKDIVSGGEIVEIKL | -0.165 |
| HMNNPLPDLLKYFRKKKHLTQEQVAKQLSVSRASYASYETGRIIPGMQHIMELSRILEHDFLFAYTLAVQ | -2.41 |
| HMDGVEVVTKPAGAQIEFAGKSYGPSPVHIPGLVAGSQLILRLPGFQAATVRLRTAPDKSKALEYTLQPA | -0.278 |
| HMGHEEPITFDRLPQAAQTFLKTHFDTLTVAYIVADRKFMGVEYEVKYTDRTEVDFRSDGQWESV | 0.085 |
| HMIEEIETQFLFDFGLIGHPNSAKIREKLSEALGIGYVNGKQLQKRLMMFGITKQQVVDVLTD | -4.78 |
| HMETDNEKVRTAFQNGLAAYREQDWDRAEAAFGAVLAEMPEDRPSLVYLERIAHLRKKAPPGAWDGVWI | -0.335 |
| HMVVPELNLAQQDVLRALRQRGRATADHLSVDTHRPVSEVMGILLGLEIAEVLYRVEGGWFVPKTAR | -2.39 |
| HMTPEPVTMYITSLTEFRSEPNTEAGIIKLLDAYEEVEMIESRGEWSKISYGDQIGYILSEFLTAENRT | -0.85 |
| HMYEGLILINKYDSLVSAKLETNKIKSLGLFFEDMEEKIAVFSGPFKNNDINLKLDFLIRNGYLDAKIY | -4.87 |
| HMDEKPPHEALSNREFQVLQLLAQGRSVGQIAQQLTLSANTISTYRARIFDKLGLHNPADLFSYAARHRLT | -1.19 |

| Sequence | soluble fraction (log2) |
| --- | --- |
| HMERAYGVRVSLRLDDPFRTLLGADWSRTHWFASAEERDAALLEMSRKHEFSRPGDQPALVYEKVQN | -1.26 |
| HMVDKSYIHNQQVASDTWTVQHNLGKYPAVSVADTGNNEVYGDVRHINENTVELKFSHPFSGVAFF | 0.61 |
| HMPPLKYLKVKSYLEAVAVKAESAMRMPTVRELMNQFNVSLATVNRALSELENDGVIVRRQGSGIVAAG | -0.00508 |
| HMAIADQPISAEHFDKLRQVLNSNTQETIASAKQHWASISNNAEFTNENVTRTLLEEMLAFIKSAS | 0.415 |
| HMLNTLGADIRALRKARGLTLAELAQTLGRSVGWLSQVERDMSEPGINDLRDLARALDVSISSLFG | -1.8 |
| HMTVSADQTAADAVIKLINAIGTVSENSGSAISAARSGYDALTDTQKKLVTNYNKLTQAEQVFSSLPS | 0.336 |
| HMIVVLKHGVTEQQMRNLIAWFKDQGVDVHVSRGIYQTVLGLVGDTSDIDVDLLRMLDIVDAVKRIT | -2.1 |
| HMQEINLIGVTGNDLERSALVKLLDGEIIKLSVGDNLNGGRVVDISAVTLTYLKSGQSITLKLPK | -2.9 |
| HMTFEAKKGYINADMSVNVRETASTSATVIITLNPNTEVKVVGEENDFYKIEYKEYKGYVAKRLISDSQVQ | -0.747 |
| HMRGDQLREHLLWTAKDVFLELGFERASMDAVAARAETSKRSLYAHFESKEKLFLAVIDLVRG | -3.54 |
| HMAEVAFEEQNIEQISNLLLRIQAIFAELMTALDKEKGGEIADNLERLYVFFLEKLGDANVRKDPAP | 0.585 |
| HMLQARKFTHIQGYEFEAEFLRTNGEFVELQDPQGRKKWFPISNFIQDDKDFIKEQAGNLSS | -0.309 |
| HMAVPMTPGELVGSRVRVLWWKDGRGEVVALARGHQATLPARSEEPLRTGADAVVLEADEGTLVVTS | -0.13 |
| HMSLSQLGLTPRQTDVLALLLKGQPNKLIARELGLSVETVKDHVAAVLRALNVSSRTQAVIAVSQMLQ | -2.13 |
| HMADTSPEGVQKLIKAFEQFGVSKDDIEGFIQRRVDAITPANVVSLRKIFTSLRDGMSSAKDWFKGA | 0.095 |
| HMQSLSDQVFFYLKERIINNEMVPGSIISIEKLTSEFGISNTPVREAIVRLAGLDLVTIHRNKNITVS | -2.19 |
| HMSSANIKLDPLERQATQQIINNIKRKYPNATIENLQEVANDAIATMRQPEFSNYTVDKFVSYFLSM | -0.519 |
| HMGKDLLGYEVFAESGDLVGILKDVMWLPHSDVYVITKGGKEFLIPVIPEVVKGINHEQGVIVISPMEGLL | -0.234 |
| HMSNVDYSQFKKDTVVEHTKFGRGIIIQTSGDGEDKIAAIAFKGLGVKRFSLAIAAASLKIIGKNDE | -2.49 |
| HMNLNLDITTYKLEELENLLKLKPNYKQEQIFEAKTKMEKFILKSNLNESKREELYIFLDNIYNKLTNNLL | -2.94 |
| HMTSSQLNIEELERRMMMHLEQNGFITRSIYTNLTGRLKWKATEDLKIFVEKGLIRKMGRGNQMYYVKVE | -1.74 |
| HMKLTESQLHKFTNDAVLAHIRNLIEFKGAFTEDDIEPIIRDRAAVYGIDLEDEDYKKVKTDVEYHFK | -0.0402 |
| HMSGTGSYVALLRDPQGNVGKVVVKGSKGEQVLSQPQQAARLDGATPSYEVTGRQIAEDFGRALAV | 0.144 |
| HMVAEPTYGRTTDVLNIRSGPSTDDERIGQLSRGAVVTILEEKDGWYRLQRGYISADYVTQISAEEASNS | -0.0612 |
| HMALEVPGIAKDKIYRIFGQLYERQQKWEDAIDYYNRAVFFTLSGTDMILYQEDLSRVKQKISL | -0.283 |
| HMEPAPPPAAPPADPELQKRIDKLVEYIGKNGPEFEAVIRDKQHDNPDYAFVFGGEGHAYYRYLLWLLPRP | -0.466 |
| HMKVSVDLSMFEDDQTADRNAAVAWVVDELGAGGVDRTILMQLQSTGWSAEQSRAILDLASAGR | -0.311 |
